Measured values as given in PMC4850381 (2016).

T1: tree shrew CRHR1 extracellular domain (tree shrew)
T1 chain: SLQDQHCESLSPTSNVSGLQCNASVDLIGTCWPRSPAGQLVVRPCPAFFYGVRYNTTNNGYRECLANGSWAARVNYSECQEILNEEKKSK

T2: human CRHR1 extracellular domain (human)
T2 chain: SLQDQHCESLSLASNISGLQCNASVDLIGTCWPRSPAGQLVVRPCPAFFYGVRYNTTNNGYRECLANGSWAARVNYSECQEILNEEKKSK


Tests used:
[1] = target: T1, tree shrew CRHR1 extracellular domain; experiment: SPR; BIACORE3000; CRHR1-ECD immobilised on the sensor chip (about 2000 RU, 10 mM NaAc pH 4.5); CRH peptides serially diluted (5 concentrations) in PBS pH 7.4, 30 μl/min, 3 min injection, 2 min dissociation, 25 °C
[2] = target: T1, tree shrew CRHR1 extracellular domain; experiment: SPR
[3] = target: T2, human CRHR1 extracellular domain; experiment: SPR
[4] = target: T2, human CRHR1 extracellular domain; experiment: SPR; BIACORE3000; CRHR1-ECD immobilised on the sensor chip (about 2000 RU, 10 mM NaAc pH 4.5); CRH peptides serially diluted (5 concentrations) in PBS pH 7.4, 30 μl/min, 3 min injection, 2 min dissociation, 25 °C

Kd [1] [nM]	Kd [2] [nM]	Kd [3] [nM]	Kd [4] [nM]	Molecule
176				tree shrew corticotrophin-releasing hormone (CRH) peptide
	1460	2110	211	SEEPPISLDLTFHLLREVLEMARAEQLAQQAHSNRKLMEIIGK [human corticotrophin-releasing hormone (CRH) peptide]
	1760	2050		SEEPPISLDLTFHLLREVLEMARAEQLAQQAHSNRKLMEMI [tree shrew corticotrophin-releasing hormone (CRH) peptide]
